Reference: paper PMC10410066

Experiments:
[1] = biological target: inhibitor of nuclear factor kappa B kinase subunit beta (IKBKB), FLAG-tagged (UniProt O14920); experiment: ELISA protein-protein interaction assay (2B7 capture, anti-FLAG detection); conditions: lysates of HEK293T cells co-overexpressing N571 Q55 HTT WT or S13A/S16A and FLAG-tagged IKBKB; parent: est. 100; read off a plot
[2] = biological target: N571 Q55 HTT (N-terminal huntingtin fragment 1-571 with 55 glutamines); experiment: as above; conditions: lysates of HEK293T cells co-overexpressing N571 Q55 HTT and FLAG-tagged IKBKB construct; parent: est. 100; read off a plot

Substance | percent of parent [1] [%] | percent of parent [2] [%]
N571 Q55 HTT (N-terminal huntingtin fragment 1-571 with 55 glutamines) S13A; S16A | 100 | 
inhibitor of nuclear factor kappa B kinase subunit beta (IKBKB), FLAG-tagged (from UniProt O14920) K44A |  | 17
inhibitor of nuclear factor kappa B kinase subunit beta (IKBKB), FLAG-tagged (from UniProt O14920) S177E; S181E |  | 190
inhibitor of nuclear factor kappa B kinase subunit beta (IKBKB), FLAG-tagged (from UniProt O14920) W739A; W741A |  | 190
